The DeepSol protein solubility set

Assay: soluble on expression in E. coli; label from the status in PepcDB or PDB records

**Q.** With “MAGDPMADQEANAEQPMPKAEQKKPEKKAVQVQKKEDDTSAWIKTEKPAKLPILMYHSISSGNSLRVPKKEFEAHMKWLHDNGYQTLTPKEASLMLTQDKKPSEKCVLITFDDGYTDNYQDAYPVLKKYGMKATIFMIGKSIGHKHHLTEEQMKEMAQHGISIESHTIDHLELNGLTPQQQQSEMADSKKLFDNMFHQQTTIISYPVGRYNEETLKAAEKTGYQMGVTTEPGAASRDQGMYALHRVRVSPGMSGSAFGAYIESMKLEHHHHHH” as the sequence, how does the “soluble on expression in E. coli” value read?
**A.** soluble

**Q.** Which “soluble on expression in E. coli” value does the source give for “SSAQFDHVTVIKKSNVYFGGLCISHTVQFEDGTKKTLGVILPTEQPLTFETHVPERMEIISGECRVKIADSTESELFRAGQSFYVPGNSLFKIETDEVLDYVCHLE” here?
**A.** not soluble

**Q.** Which “soluble on expression in E. coli” value does the source give for “AEAAPCETADGTYHIALPEAENPPVLIFLHGHGGEGAATLRNARLVAPLLARGWAVIAPDGQSRAPGRPRSWTFFPGWEGRDEPAFLAQVLGEASARFGLDADRAVLGGFSAGAFMVTYLACATPGAYRAYVPVSGGFWRPQPDRCAGPVHLFQTHGWADPVVPLEGRFLGGGRFQQGDIFAGLELWRQTNGCVEHKPDGFDQTGPFLRRRWQGCSGGSLEFALFPGGHTVPEGWADMMADWVEAL” here?
**A.** not soluble

**Q.** Which “soluble on expression in E. coli” value does the source give for “MDEDIICVGCGAILQSDDPKKAGYLPKSALDKAKREENTDVYCQRCFRLRHYNEIMPVDLNNDDFLALLNSLSEKKALVVNVVDLFDFSNSLLSSLKRFVGNNDFILVGNKFDLFPKNSKQSKIKDWMRQEANRMGLYPKDIFLVSAKKKVNLESLISYINDHSQDKDVYFVGTTNVGKSTLINAIIDMMGDIQDLITTSRFPGTTLDQIEIPLENGHFLIDTPGIMTDNQLATHLNAKDLELVSPKKPLKPATYQLLPGNTLFLAGLGRIDFLKGESTSFTVYVARDMYVHRTKTANADAFYEKHKGELLTPPSADDQMAPLKGKEFRTDYKSDLLFGGIGFVTVPKGCVVKTYTPDGIGLGIRRALILEHHHHHH” here?
**A.** soluble

**Q.** With “MGSDKIHHHHHHMTPSMVEDVRIEQLWIPDSLDGPDSADFLAAVEVGRKVRMQTWGSDDLAYTPLEKLLEFADPYERQVILVARVEGNIVGTVDIALPLADNLDLAEFTLDILPEFQRQGVGRQLLEAAEQFARAEGRSMILIDTNHPGVSLSSSADDQLVPGSGLGFVPMGSREVEFARKTGYTLQHIEQFSSCLLPLDTKLVAELSDEAEQANAGRYRLHHWTDRCPDIWLEGVAALENQAGGDTEPSTRTDEQMVFDGAMIRKAEDATIAQGRRTVVTAVEHIATGTLVGLTTISVLSQRQDVVFQDDTVVMQEHRGNKLGLLIKVANMVRLTEQFPDARVIYTWNAPENRYLLKVNQQLGFNTAGVTGIWQKDLPDLGPSSS” as the sequence, how does the “soluble on expression in E. coli” value read?
**A.** not soluble

**Q.** With “MGSDKIHHHHHHMTMQPKYRELLLDEDVRRWFENLKAKSVLTATVALRNLGHYCELTGTTPHGILNKARANEKDFRYEFTDFVRKMEKEGKAGSYIARFKKVILSWLKFNDIRLQLTVNIAGENETPTIVNERVPSKEELARILRKATSRGRVAIAIMAFSGLRPESLGDYEGTDGLRLGDLKELKLSDEIQFDKIPATVMVKSKLSKARHHYFSFIGEEGTTYIREYLDERRKQGEELTYESPLLQFDVRGVKKNAFLRTTLVTRDIREAIEQAGLKMRPYVLRAYFSTALDIAESKGLISHPWRQFIMGHKGDIEARYSTNKRLPPDIIDEMRESYNKCTKFLETRISDVSEENARLYLQQQLLSAVGYRQDEIDKMNLAETSTEDFQKLLRDKVAGAMASNGSKQRLVSMNEIEKLLGEGYEFQAVLPNGKAIMKMPF” as the sequence, how does the “soluble on expression in E. coli” value read?
**A.** not soluble

**Q.** For “MSLADAPDNLLGAYLRDRREKLDPAALGLPSTRRRTPGLRREEVAQRAHVSTAWYTWMEQGRGGAPSADVLDRLARALLLDDAEREHLFLLGVGHPPEVRYHASGGVTPRLQHVLDAMDASPAIVRTATWDVVAWNAAAAATLTDYATLPPAARNILRLIFVDPRVRDAQPNWDRVARFAVGAFRADIARGGATQAVQAFIDEMRATSAEFDALWRDHDIRSHDEGTKEIRHPHAGRITLEYSAFAVIGRADLSLVIFTPTTAADRASIRSLVAAREQARAAQAPAMEGHHHHHH”, which “soluble on expression in E. coli” value is on record?
**A.** soluble

**Q.** For “KQLLFMHSSASVESLERPYLETMPGQYAAEITLFEWLDFLLERGGVKRALKAIEYYETVGWVSADAAERLQGHVRGFSGPADDDSHSDLEMSDHVLSLVYIARLSSMQ”, which “soluble on expression in E. coli” value is on record?
**A.** not soluble
